The target in one assay is VEGFR-I (Homo sapiens, UniProt P17948). The assay is described as follows: VEGFR-I phosphorylation assay, PAE-VEGFR-I cells. Also on record: host or cells: porcine aorta endothelial (PAE) cells. The format is cell-based. Conditions: PAE-VEGFR-I transfectant, compared to untreated control, FIG. 10. On the procedure:
Confluent porcine aorta endothelial VEGFR-I expressing (PAE-VEGFR-I) cells and BT474 human breast carcinoma cells were cultured in serum-depleted F12 medium for 48 hours. The cells were then preincubated with anti-VEGFR-I antibody clone 18F1 at concentrations ranging from 0.1 to 30 μg/ml for 1 hour followed by stimulating with VEGF or PlGF for 5 minutes at 37° C. The cells were then rinsed with ice-cold PBS and lysed in lysis buffer (50 mM HEPES, 150 mM NaCl, 1% Triton X-100, and 10% glycerol containing 1 mM phenylmethylsulfonyl fluoride, 10 μg/ml aprotinin, 10 μg/ml leupeptin, and 1 mM sodium vanadate). Cell lysates were subjected to SDS-PAGE and transferred onto Immobilon membranes (Millipore Corp. Billerica, Mass.). […]
Autophosphorylation of the VEGFR-I induced by its ligands and resulting activation of a classical MAPK, extracellular signal-regulated protein kinases 1Z2 (ERK1Z2) and the PBK/Atk downstrean signaling pathways mediate cellular biological responses such as proliferation, motility, survival, and differentiation. The ability of an anti-VEGFR-1 antibody to inhibit phosphorylation of VEGFR-I and activation of ERK1 Z2 and the Akt kinases downstream signaling were determined by using the PAE-VEGFR-I transfectant and BT474 breast carcinoma cells. […]

The target in the next assay is T1, mouse VEGFR-I Fc (Mus musculus, UniProt P35969).
T1 sequence (P35969 23-759 limits assumed): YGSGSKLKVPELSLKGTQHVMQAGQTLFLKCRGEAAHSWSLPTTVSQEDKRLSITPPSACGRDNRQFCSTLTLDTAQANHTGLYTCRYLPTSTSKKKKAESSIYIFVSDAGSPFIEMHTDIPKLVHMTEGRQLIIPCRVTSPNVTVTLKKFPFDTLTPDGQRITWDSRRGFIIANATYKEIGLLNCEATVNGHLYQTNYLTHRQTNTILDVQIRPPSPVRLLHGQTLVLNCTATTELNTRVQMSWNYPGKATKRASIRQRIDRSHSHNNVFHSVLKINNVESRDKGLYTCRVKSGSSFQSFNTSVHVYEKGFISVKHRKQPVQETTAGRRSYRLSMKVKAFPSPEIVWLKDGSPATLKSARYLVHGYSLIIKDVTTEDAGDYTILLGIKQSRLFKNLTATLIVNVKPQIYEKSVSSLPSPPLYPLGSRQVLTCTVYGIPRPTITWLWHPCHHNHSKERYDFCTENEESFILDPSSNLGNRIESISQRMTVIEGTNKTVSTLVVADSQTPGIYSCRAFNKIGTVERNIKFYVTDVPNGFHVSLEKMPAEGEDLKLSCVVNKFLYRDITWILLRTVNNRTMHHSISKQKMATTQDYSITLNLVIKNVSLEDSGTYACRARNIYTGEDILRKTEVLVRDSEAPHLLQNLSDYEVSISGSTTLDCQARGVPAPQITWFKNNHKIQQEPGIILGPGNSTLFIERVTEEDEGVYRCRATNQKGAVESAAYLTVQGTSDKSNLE
The assay is described as follows: ELISA-based specificity assay (Example 2A). The format is binding. The conditions noted are these: FIG. 6B. On the procedure:
To determine the specificity of an anti-VEGFR-1 monoclonal antibody to human VEGFR-I, purified antibodies 18F1 were tested in an ELISA-based assay. One μg/ml of recombinant human VEGFR-I Fc, mouse VEGFR-I Fc, mouse VEGFR-2 Fe, or human VEGFR-2 alkaline phosphatase was coated with PBS in a 96-well microtiter plates at 4° C. over night. After wash, the receptor coated plates were blocked with PBS containing 5% Dry Milk and 0.05% Tween 20. Serial dilutions of primary antibody 18F1 to human VEGFR-I, MF1 to mouse VEGFR-I. ICl 1 to human VEGFR-2, or DClOl to mouse VEGFR-2 were incubated in the receptor-coated plates for 30 minutes. After wash secondary anti-primary HRP conjugate antibodies was incubated in the plates for 30 minutes. Plates were washed and incubated with the substrate TMB (3,3′,5,5′-tetra-methylbenzidine) for color development. The absorbance at 450 nm was read as OD values for quantification of binding activity of antibodies. Data were analyzed using a GraphPad Prism Software.
Background: An ELISA detects its analyte on a solid surface through an enzyme-linked reagent.

In assay [1] the target is T2, DU4475 human breast carcinoma cells (Homo sapiens, UniProt P17948).
T2 construct: host or cells: DU4475 human breast carcinoma cells
The assay is described as follows: Flow cytometry analysis, DU4475 cells. The format is binding. Conditions: FIG. 8B. On the procedure: Aliquots of 10^6PAE-VEGFR-I cells were harvested from subconfluent cultures and incubated with anti-VEGFR-I antibody clones 6F9, 13G12, F11, and 18F1 in PBS with 1% bovine serum albumin (BSA) and 0.02% sodium azide (staining buffer) for one hour on ice. Aliquots of 10^6DU4475 human breast carcinoma cells were harvested from subconfluent cultures and incubated with anti-VEGFR-1 antibody clone 18F1 in PBS with 1% bovine serum albumin (BSA) and 0.02% sodium azide (staining buffer) for one hour on ice. A matched IgG isotype (Jackson ImmunoResearch, West Grove, Pa.) was used as a negative control. Cells were washed twice with flow buffer and then incubated with a fluorescein isothiocyanate (FITC)-labeled goat anti-human IgG antibody (BioSource International, Camarillo, Calif.) in staining buffer for 30 minutes on ice. Cells were washed as above and analyzed on an Epics XL flow cytometer (Beckman-Coulter, Hialeah, Fla.). Dead cells and debris were eliminated from the analysis on the basis of forward and sideways light scatter. The mean fluorescent intensity units (MFRJ) were calculated as the mean log fluorescence multiplied by the percentage of positive population.
For orientation: Flow cytometry measures light scatter and fluorescence of single cells or particles in a stream.

Entries after “also recorded” stand apart in the source; their conditions may differ.

Sequence of VEGFR-I (P17948 27-1338): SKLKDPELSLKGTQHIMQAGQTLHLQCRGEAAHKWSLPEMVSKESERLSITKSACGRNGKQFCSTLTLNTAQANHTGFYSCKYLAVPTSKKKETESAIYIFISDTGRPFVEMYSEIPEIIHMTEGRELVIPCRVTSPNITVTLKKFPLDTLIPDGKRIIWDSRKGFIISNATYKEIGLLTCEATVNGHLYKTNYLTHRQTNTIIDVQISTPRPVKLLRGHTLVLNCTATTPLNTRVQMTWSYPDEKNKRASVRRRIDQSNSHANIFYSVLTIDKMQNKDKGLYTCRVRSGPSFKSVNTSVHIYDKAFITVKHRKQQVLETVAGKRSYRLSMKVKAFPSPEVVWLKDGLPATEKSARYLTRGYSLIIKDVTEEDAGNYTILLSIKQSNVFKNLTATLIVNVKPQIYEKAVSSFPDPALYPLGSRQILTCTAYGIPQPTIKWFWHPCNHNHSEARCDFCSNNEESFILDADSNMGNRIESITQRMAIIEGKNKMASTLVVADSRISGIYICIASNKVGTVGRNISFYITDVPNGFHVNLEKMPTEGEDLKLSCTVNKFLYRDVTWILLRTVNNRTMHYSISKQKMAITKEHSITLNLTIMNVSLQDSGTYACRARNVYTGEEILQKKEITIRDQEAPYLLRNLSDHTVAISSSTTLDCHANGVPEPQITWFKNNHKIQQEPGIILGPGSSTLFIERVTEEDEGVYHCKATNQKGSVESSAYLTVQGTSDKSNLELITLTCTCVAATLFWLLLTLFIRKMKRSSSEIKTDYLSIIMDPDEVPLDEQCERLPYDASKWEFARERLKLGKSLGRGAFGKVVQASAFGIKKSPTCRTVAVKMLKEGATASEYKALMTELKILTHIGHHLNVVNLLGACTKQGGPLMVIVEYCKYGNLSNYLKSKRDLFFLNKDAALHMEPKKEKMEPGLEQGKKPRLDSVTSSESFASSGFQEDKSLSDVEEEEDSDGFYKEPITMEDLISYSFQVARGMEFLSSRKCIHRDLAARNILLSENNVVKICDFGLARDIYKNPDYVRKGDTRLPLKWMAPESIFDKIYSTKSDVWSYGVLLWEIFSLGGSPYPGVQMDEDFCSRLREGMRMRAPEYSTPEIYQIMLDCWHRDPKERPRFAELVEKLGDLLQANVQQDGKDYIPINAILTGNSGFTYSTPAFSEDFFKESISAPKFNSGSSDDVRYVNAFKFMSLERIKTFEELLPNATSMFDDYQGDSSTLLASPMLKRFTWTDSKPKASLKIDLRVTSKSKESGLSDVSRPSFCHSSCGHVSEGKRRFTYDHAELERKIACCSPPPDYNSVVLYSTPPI
T2 sequence (P17948 27-1338): as above

On to “18F1: human anti-VEGFR-1 monoclonal antibody clone; VL SEQ ID NO: 16, VH SEQ ID NO: 20 [Clone 18F1]”, for which the “PlGF-stimulated phosphorylation of VEGFR-I” value with VEGFR-I is given as “significantly reduced; also recorded: reduction”. Moreover, the “cross reactivity with mouse VEGFR-I” value with mouse VEGFR-I Fc was “no cross reactivity”. Also, in assay [1], the “binding reactivity with DU4475 human breast carcinoma” value is listed as “binding reactivity”.

(Values after patent US8143025B2, “Antibodies against vascular endothelial growth factor receptor-1” (ImClone LLC, priority 2004, dated 2012).)
